Test results: patent US20240400703A1 (Genmab, published 2024)
Positions count from the first letter of the chain named. In names and notes the source's numbering stands.

How the values were obtained:
[1] = biological target: T1, human OX40 with mouse CRD4 (human with mouse CRD4, UniProt P43489 29-277); assay: flow cytometry, transfected ExpiCHO-S cells, MFI at 5 µg/mL as % of IgG1-CD134-A4453
T1 construct: on ExpiCHO-S cells; also called OX40-CRD4mm; Shuffle 4
T1 chain: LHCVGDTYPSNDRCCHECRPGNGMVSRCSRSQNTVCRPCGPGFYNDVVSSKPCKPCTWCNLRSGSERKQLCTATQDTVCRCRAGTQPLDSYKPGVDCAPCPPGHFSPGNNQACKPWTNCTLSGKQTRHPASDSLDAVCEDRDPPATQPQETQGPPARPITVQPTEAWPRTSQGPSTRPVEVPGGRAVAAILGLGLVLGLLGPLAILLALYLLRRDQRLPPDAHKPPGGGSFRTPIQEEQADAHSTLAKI
Description: (§1) The four shuffle constructs, as well as wild-type human and mouse OX40 were transiently expressed on ExpiCHO-S cells using the ExpiFectamine™ CHO Transfection Kit (ThermoFisher, cat. no. A29131), according to the manufacturer's protocol. […] Next, cells were washed twice in FACS buffer 1, were resuspended in a 30 μL solution of viability marker ToPro-3 (Invitrogen, cat. no. T3605, diluted 1:10,000) in FACS buffer 1 supplemented with 2 mM EDTA, and were analyzed on an iQue Screener Plus (Intellicyt Corporation, USA). Data were analyzed using FlowJo software and visualized using GraphPad Prism.

[2] = biological target: T2, human OX40 with mouse CRD3 (human with mouse CRD3, UniProt P43489 29-277); assay: as above
T2 construct: on ExpiCHO-S cells; also called OX40-CRD3mm; Shuffle 3
T2 chain: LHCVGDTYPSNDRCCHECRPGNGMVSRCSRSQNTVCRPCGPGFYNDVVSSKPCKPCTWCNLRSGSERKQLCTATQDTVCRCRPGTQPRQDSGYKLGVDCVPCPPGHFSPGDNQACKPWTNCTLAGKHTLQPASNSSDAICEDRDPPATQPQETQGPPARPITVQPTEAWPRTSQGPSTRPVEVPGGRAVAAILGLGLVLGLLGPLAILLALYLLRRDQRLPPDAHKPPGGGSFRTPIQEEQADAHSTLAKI
Description: as §1

[3] = biological target: T3, human OX40 with mouse CRD1 (human with mouse CRD1, UniProt P43489 29-277); assay: as above
T3 construct: on ExpiCHO-S cells; also called OX40-CRD1mm; Shuffle 1
T3 chain: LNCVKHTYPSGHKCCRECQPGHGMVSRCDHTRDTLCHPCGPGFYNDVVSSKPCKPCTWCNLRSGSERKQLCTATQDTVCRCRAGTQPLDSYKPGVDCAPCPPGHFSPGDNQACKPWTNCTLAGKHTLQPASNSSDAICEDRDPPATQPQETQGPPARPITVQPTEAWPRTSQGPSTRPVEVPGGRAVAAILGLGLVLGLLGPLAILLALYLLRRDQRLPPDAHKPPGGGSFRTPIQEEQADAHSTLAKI
Description: as §1

[4] = biological target: T4, human OX40 with mouse CRD2 (human with mouse CRD2, UniProt P43489 29-277); assay: as above
T4 construct: on ExpiCHO-S cells; also called OX40-CRD2mm; Shuffle 2
T4 chain: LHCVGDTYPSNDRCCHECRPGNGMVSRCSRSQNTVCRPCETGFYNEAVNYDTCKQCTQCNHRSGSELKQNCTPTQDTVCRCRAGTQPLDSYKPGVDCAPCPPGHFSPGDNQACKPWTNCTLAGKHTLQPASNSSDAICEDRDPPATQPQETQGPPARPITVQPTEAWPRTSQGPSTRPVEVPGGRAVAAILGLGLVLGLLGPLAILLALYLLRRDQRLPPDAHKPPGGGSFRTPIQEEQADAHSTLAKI
Description: as §1

[5] = biological target: T5, human OX40 expressed on cells (human, UniProt P43489 29-277); assay: flow cytometry, activated human CD4+ T cells, donor 1
T5 construct: also called CD134; TNFRSF4
T5 sequence: T1 chain with N109D, S122A, Q125H, R127L, H128Q, D132N, L134S, V137I

[6] = biological target: T6, C1q (from normal human serum) (human, UniProt P02745 23-245; P02746 28-253; P02747 29-245); assay: flow cytometry, C1q from 20 % normal human serum on antibody-opsonised activated CD4+ T cells, FITC anti-C1q
T6 construct: also called complement factor C1q
T6 sequence (P02745 23-245 limits assumed, chain 1 of 3): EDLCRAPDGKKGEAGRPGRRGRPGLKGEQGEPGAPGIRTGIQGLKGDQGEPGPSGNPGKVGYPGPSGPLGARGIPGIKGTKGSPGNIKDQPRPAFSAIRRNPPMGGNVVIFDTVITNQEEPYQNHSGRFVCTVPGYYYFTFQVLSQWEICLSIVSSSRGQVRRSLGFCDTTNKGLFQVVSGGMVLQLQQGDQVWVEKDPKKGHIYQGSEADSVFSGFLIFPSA
T6 sequence (P02746 28-253 limits assumed, chain 2 of 3): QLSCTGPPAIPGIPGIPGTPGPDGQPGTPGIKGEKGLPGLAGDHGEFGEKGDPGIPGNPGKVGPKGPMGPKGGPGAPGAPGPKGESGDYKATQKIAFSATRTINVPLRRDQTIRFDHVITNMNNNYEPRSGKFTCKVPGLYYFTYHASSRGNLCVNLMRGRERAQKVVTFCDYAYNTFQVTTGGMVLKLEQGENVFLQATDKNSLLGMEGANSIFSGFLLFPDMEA
T6 sequence (P02747 29-245 limits assumed, chain 3 of 3): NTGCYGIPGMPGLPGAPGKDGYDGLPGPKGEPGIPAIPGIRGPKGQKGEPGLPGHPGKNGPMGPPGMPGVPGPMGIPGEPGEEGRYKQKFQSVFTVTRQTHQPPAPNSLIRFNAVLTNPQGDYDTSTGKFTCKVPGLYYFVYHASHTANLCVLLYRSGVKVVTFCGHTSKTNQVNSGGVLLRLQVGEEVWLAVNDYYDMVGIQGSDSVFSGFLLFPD
Description: Next, cells were washed twice with cold FACS buffer, pelleted, and resuspended in 80 μL FACS buffer supplemented with viability marker TO-PRO™-3 Iodide (Invitrogen, cat. no. T3605; diluted 1:10,000). […] Binding curves were analyzed using nonlinear regression analysis (sigmoidal dose-response with variable slope) using GraphPad Prism software. Binding of OX40 antibodies to the activated T cells was assessed after the incubation step with serial dilutions of antibodies. […] Next, cells were washed twice with cold FACS buffer, pelleted, and resuspended in 80 μL FACS buffer supplemented with viability marker TO-PRO-3 Iodide (diluted 1:10,000). Antibody binding was analyzed by flow cytometry on a BD FACSCelesta Cell Analyzer. Binding curves were analyzed using nonlinear regression analysis (sigmoidal dose-response with variable slope) using GraphPad Prism software.

[7] = biological target: T5, human OX40 expressed on cells; assay: flow cytometry, activated human CD8+ T cells, donor 2
Description: Healthy human donor PBMCs were purified essentially as described in Example 7. The cell concentration was adjusted to 2×10⁶ cells per mL (final concentration) in assay medium and plated in 6-well plates (Greiner, cat. no. 657160). PBMCs were stimulated with 0.3 μg/mL anti-CD3 ([…] Technologies, cat. no. 60011) and 0.5 μg/mL anti-CD28 antibodies (BioLegend, cat. no. 302934) and cultured for two days at 37° C., 5% CO₂. Next, the PBMCs were harvested, counted and brought to a concentration of 2×10⁶ cells per mL in FACS buffer 1 (DPBS with 2% heat-inactivated FBS and 2 mM ethylenediaminetetraacetic acid [EDTA]). […] After 60 min at RT, the cells were prepared for flow cytometric analyses. To this end, the cells were washed twice with 150 μL FACS buffer 1 and 30 μL/well cell-surface antibody mix (Table 9) in FACS buffer 1 containing antibody against human Fcγ antibody (Table 9) and fixable viability dye eFluor780 (1:1,500) was added. The staining procedures were carried out at 4° C. for 15-20 min protected from light. Stained cells were washed twice with 120-150 μL FACS buffer 1 (5 min, 460×g, RT) and resuspended in 60-100 μL FACS buffer 1 for direct flow cytometric analyses. Flow cytometric data were acquired on a FACSymphony A3 and analyzed with FlowJo software.

B1: IgG1-CD134-003-HC6LC2-P329R-E345R (antibody)
heavy: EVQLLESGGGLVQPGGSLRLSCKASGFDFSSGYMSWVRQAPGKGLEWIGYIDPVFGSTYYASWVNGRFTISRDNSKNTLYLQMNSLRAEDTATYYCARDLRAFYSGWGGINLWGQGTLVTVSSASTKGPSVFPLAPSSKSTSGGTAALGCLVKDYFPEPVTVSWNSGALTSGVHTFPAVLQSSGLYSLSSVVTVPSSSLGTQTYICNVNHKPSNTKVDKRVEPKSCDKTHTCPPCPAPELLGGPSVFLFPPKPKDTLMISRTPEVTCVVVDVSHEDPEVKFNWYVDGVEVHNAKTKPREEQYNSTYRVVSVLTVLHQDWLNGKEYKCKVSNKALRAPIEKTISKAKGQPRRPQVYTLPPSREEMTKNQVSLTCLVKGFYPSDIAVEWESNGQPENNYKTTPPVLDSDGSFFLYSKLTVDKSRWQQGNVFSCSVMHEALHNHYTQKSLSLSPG
light: AAVLTQSPSSLSASVGDRVTITCQSSQIVVNNNFLSWYQQKPGKAPKLLIYDASNLASGVPDRFSGSGSGTDFTFTISSLQPEDIATYYCLGGYDDDAENAFGGGTKVEIKRTVAAPSVFIFPPSDEQLKSGTASVVCLLNNFYPREAKVQWKVDNALQSGNSQESVTEQDSKDSTYSLSSTLTLSKADYEKHKVYACEVTHQGLSSPVTKSFNRGEC
notes: humanized; human IgG1 with P329R and E345R (Eu numbering), kappa; also called IgG1-CD134-003-HC6LC2-RR
- binding result [1]: binds
- binding result [2]: binds
- binding result [3]: no binding (tested: 5 µg/mL)
- binding result [4]: binds
- EC50 [5]: 0.0273 µg/mL
- binding result [6]: no binding (tested: 30 µg/mL antibody)
- EC50 [7]: 0.0163 µg/mL
